Sequences and labels used below:
B1: minibinder 6 with C-terminal Avi-His6 tag (designed binder)
chain: SAVELYLELLERSLRLAVEAGDPEDAERILRKARQIARVFNDPELEEIVERMEEILK-{Avi tag-His6}
modifications: also: biotin
B2: minibinder 8 with C-terminal Avi-His6 tag (designed binder)
chain: SLEEEAERVVEELVKEFNLSETQEIALRRYAEFAAKAGASEEVIEELLRRVAERLS-{Avi-His6}
modifications: also: biotin (for BLI), position not given here
B3: minibinder 7 with C-terminal Avi-His6 tag (designed binder)
chain: SAMERYVKVLLRTAELAREAGDPEDVRKALEKAELVARILHNEELKEEIREVEEEL-{Avi tag-His6}
modifications: also: biotin
B4: minibinder 8.5 (designed binder)
chain: SLEEEAERVVEELVKEFNLSRTQEIALRRYAEYAARATASEEVIEELLRRVAERLS
modifications: also: biotin (for BLI), position not given here
B5: minibinder 8.4 (designed binder)
chain: B4 chain with T38G
modifications: also: biotin (for BLI), position not given here
B6: minibinder 8.3 (designed binder)
chain: B4 chain with R36K, T38G
modifications: also: biotin (for BLI), position not given here
B7: minibinder 8.2 (designed binder)
chain: B4 chain with R21E, R36K, T38G
modifications: also: biotin (for BLI), position not given here
B8: minibinder 8.1 (designed binder)
chain: B4 chain with Y33F, R36K, T38G
modifications: also: biotinylated (site not given here)
B9: minibinder 7.8 (designed binder)
chain: SAMEYYVKELLRTAEYAREAGDPEYVRKALEQAELVARILHNEELKEEIREVEEEL
modifications: also: biotinylated (site not given here)
B10: minibinder 7.3 (designed binder)
chain: B9 chain with E9V
modifications: also: biotin
B11: minibinder 7.6 (designed binder)
chain: B9 chain with Y25D, Q32K
modifications: also: biotin
B12: minibinder 7.5 (designed binder)
chain: B9 chain with E9V, Y25D
modifications: also: biotin
B13: minibinder 7.9 (designed binder)
chain: B9 chain with K28N
modifications: also: biotinylated (site not given here)
B14: minibinder 7.12 (designed binder)
chain: B9 chain with Y25D, K28N
modifications: also: biotin
B15: minibinder 7.10 (designed binder)
chain: B9 chain with D22E, K28N
modifications: also: biotin
B16: minibinder 7.4 (designed binder)
chain: B9 chain with K8N, E9V, Y25D, Q32K
modifications: also: biotin
B17: minibinder 7.11 (designed binder)
chain: B9 chain with Y25D
modifications: also: biotin
B18: minibinder 7.7 (designed binder)
chain: B9 chain with Q32K
modifications: also: biotin
B19: minibinder 7.2 (designed binder)
chain: B9 chain with E9V, Q32K
modifications: also: biotin

Where a chain is given by its changes, count along the chain named. Where no end group is shown, it is not given here.

One test concerns the target T1, human TLR3 ectodomain (Wuxi Biologics, custom order) (human, UniProt O15455 24-704, biotin (for yeast display)). Nature of the test: BLI. A general note: In BLI a coated tip is dipped into the sample, and binding shifts an interference pattern.
Take B1: the Kd (commonly the constant that tells how readily two partners part at equilibrium) stood at 43 nM.

The next test addresses T1, human TLR3 ectodomain (Wuxi Biologics, …). Nature of the test: BLI. This is another data set of the same source.
The molecule B2 returned a Kd of 1200 nM.

For B3, the affinity, expressed as Kd, was 440 nM.

The target is the same in the next test. The test is described as follows: BLI. The source holds these as a separate data set.
In the case of B4, binding was characterised by a dissociation constant (Kd) of 170 nM.

For the molecule B5, the Kd turned out to be 230 nM.

For B6, binding was put at a Kd of 230 nM.

Turning to B7, the Kd amounted to 600 nM.

Regarding B8, the dissociation constant (Kd) came out at 690 nM.

For another test the target is unchanged. The test is described as follows: BLI. This is another data set of the same source.
B9 had a Kd of 40 nM.

For B10, the Kd was found to be 29 nM.

B11 gave a Kd of 24 nM.

With B12, binding was put at a Kd of 1.1 nM.

Turning to B13, the Kd is 95 nM.

Take B14: the Kd was 108 nM.

Regarding B15, the Kd worked out at 190 nM.

Molecule B16 showed a Kd of 34 nM.

With B17, the Kd came to 45 nM.

Consider B18, for which binding was put at a Kd of 31 nM.

The molecule B19 registered a Kd of 17 nM.

The values above are taken from paper doi:10.1101/2024.04.17.589973 (2024).
